Patent US20230416361A1 (MIROBIO, published 2023)
Substitutions are numbered along the chain they refer to. In names and notes the source's numbering stands. One block for each binder: values may come before it.

Experiments:
[1] = molecular target: T1, extracellular domain of cyno CD200R (SinoBiological 11232-C08H, Met1-Leu267) (cynomolgus, UniProt G7NZT0 25-268); experiment: SPR (Biacore), antibody captured by anti-human Fc, CD200R extracellular domain injected, single cycle kinetics, 25 C
T1 construct: range 1-267; Bought protein
T1 sequence: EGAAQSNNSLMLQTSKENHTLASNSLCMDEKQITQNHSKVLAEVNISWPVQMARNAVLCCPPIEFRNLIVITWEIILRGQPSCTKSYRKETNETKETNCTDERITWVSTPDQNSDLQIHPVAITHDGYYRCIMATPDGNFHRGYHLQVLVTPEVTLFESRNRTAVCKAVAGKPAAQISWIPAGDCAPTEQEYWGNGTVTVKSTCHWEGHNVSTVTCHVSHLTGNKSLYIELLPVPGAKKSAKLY
Protocol: This example investigates in vitro CD200R binding of anti-CD200R antibodies by surface plasmon resonance. Surface plasmon resonance binding experiments with purified anti-CD200R antibody (expressed on a hIgG1 isotype with a P238D Fc mutation) were performed using the Biacore T200 and 8K+instruments. Anti-human Fc antibody (Life Technologies H10500) was amine-coupled to a C1 sensor chip using standard amine-coupling chemistry. Residual activated carboxyls were blocked with ethanolamine. Antibodies with a human Fc were then captured on these surfaces.
To assess the binding of hu2131_v20_D56S antibody and variants (antibody hu213l_Q1E and antibody hu2131_Q1E_M99G) to the extracellular domains of human CD200R (Met29-Leu243) and cyno CD200R (SinoBiological 11232-C08H, Metl-Leu267), 10-30 RUs of antibody were captured. CD200R proteins were diluted into running buffer (10 mM HEPES, 150 mM NaCl, 3 mM EDTA, 0.01% Polysorbate 20, pH 7.4 with 0.1 mg/mL BSA) (full-length antibody sequences are disclosed in Table 10). Five three-fold serial dilutions were performed for each CD200R, with highest concentration being 100 nM. Samples were injected using a single cycle kinetics scheme (Karlsson Anal Biochem et al 2006). Data were analyzed using Biacore Insight Evaluation Software and fit to a simple kinetic model, from which kon and koff were obtained to calculate KD using the relationship KD=koff/kon. Experiments were run at 25° C.

[2] = molecular target: T2, monomeric soluble human CD200R extracellular domain (human, UniProt Q8TD46 29-265); experiment: BLI (Octet), antibody on anti-human Fc probes, monomeric CD200R in solution, 25 C, 1:1 global fit
T2 construct: extracellular domain; also called hCD200R; monomeric CD200R protein
T2 sequence (looked up): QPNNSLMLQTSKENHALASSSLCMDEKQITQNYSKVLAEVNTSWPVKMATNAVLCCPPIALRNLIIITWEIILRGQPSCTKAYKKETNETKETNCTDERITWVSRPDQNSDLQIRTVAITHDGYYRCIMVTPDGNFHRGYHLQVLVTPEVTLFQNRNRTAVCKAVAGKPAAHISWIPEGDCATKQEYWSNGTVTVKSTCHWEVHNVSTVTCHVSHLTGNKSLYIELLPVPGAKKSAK
Protocol: Humanised variant antibodies combining the different heavy and light variable domains described in Example 6 were produced by transient transfection of HEK293 cells. All antibodies were expressed on a human IgGI isotype with a P238D Fc mutation. The unpurified supernatants were analysed by Protein A-HPLC to determine the antibody concentrations, as a measure of expression yield. […] Binding affinity of humanized variants to human CD200R was assessed by bio-layer interferometry on an Octet R4 instrument. Each antibody was captured directly onto anti-human Fc capture probes (Sartorius 18-5060) for 60 sec followed by baseline setting in assay buffer (DPBS, 0.01% Polysorbate-20). Association of monomeric CD200R protein to immobilised antibodies was measured in 4 different protein concentrations (300, 100, 30 and 10 nM in assay buffer) at 25° C., with an association time of 120s and dissociation of 120s in assay buffer only. A reference probe with no antibody immobilised was used for background subtraction. Kinetic rate constants and binding KDs were calculated using Octet Analysis Studio 12 software. Global curve fitting based on all 4 concentrations using a 1:1 model was performed, from which kon and koff were obtained to calculate KD using the relationship KD=koff/kon.

[3] = molecular target: T3, cyno CD200RLa full length construct on cells (cynomolgus, UniProt A0A2K5W6R0 30-275); experiment: flow cytometry on transiently transfected HEK293T cells
T3 construct: whole, on cells; also called cynomolgus CD200RLa expressed on cells
T3 sequence: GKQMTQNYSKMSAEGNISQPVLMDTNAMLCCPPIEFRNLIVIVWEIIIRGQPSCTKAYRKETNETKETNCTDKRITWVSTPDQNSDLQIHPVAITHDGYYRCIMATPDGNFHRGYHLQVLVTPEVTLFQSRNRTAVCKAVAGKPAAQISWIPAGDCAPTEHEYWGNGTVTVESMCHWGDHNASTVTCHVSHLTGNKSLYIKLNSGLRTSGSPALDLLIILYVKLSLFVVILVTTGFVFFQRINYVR
Protocol: (§1) The binding of CD200R antibodies to human and cyno CD200R and CD200RLa constructs was assessed by flow cytometry of transiently transfected cells. CD200RLa has a charged transmembrane (TM) that is not expected to express well in the absence of appropriate binding partners. Therefore, in addition to the full length CD200RLa constructs, chimeric constructs were used consisting of the CD200RLa extracellular domain fused to mouse CD80 transmembrane and intracellular tail to enable cell surface expression.
(§2) HEK293T cells were plated out at 1 million cells per well in a 6 well plate the day before transfection. The following day cells were transfected with CD200R constructs using 2.5 μg plasmid DNA (a pcDNA3.4 vector containing the CD200R construct sequence) and 10 μl Lipofectamine 2000 (mixed in 200 μl Optimem for 5 minutes then added dropwise to cells). 48 hours after transfection, cells were collected by vigorous pipetting in cold PBS and 50,000 cells pelleted per well in 96 well U bottom plates.
(§3) Cells were then washed and stained for 30 minutes with a secondary staining mix containing a live/dead marker (Near IR LD, Biolegend cat #423106) and APC anti-hIgG (clone QA19A42, Biolegend cat #366906) or AF647 anti-mIgG1 (clone RMG1-1, cat #406618). As a control, cells were separately stained with the commercial anti-CD200R clone OX108 directly labelled with AF647 (Biolegend cat #329308). Finally, cells were washed and resuspended in FACS buffer for acquisition on a FACS Celesta flow cytometer.

[4] = molecular target: T4, human CD200RLa full length construct on HEK293T cells (human, UniProt Q6Q8B3 24-271); experiment: as above
T4 construct: whole, on cells; also called CD200R1L
T4 sequence (looked up): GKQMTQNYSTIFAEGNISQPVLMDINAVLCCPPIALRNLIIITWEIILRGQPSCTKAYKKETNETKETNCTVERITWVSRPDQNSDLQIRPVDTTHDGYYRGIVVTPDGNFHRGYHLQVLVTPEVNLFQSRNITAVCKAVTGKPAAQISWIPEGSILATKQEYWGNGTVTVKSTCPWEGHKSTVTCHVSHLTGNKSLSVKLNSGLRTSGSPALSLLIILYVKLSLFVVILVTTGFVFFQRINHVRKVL
Protocol: as §1, §2, §3

[5] = molecular target: T5, human CD200RLa extracellular domain fused to mouse CD80 transmembrane and intracellular tail, on HEK293T cells (human; mouse, UniProt Q6Q8B3 24-239; Q00609 247-306, limits assumed); experiment: as above
T5 construct: extracellular domain;domain: transmembrane and intracellular tail; also called human CD200RLa chimeric construct
T5 sequence (looked up): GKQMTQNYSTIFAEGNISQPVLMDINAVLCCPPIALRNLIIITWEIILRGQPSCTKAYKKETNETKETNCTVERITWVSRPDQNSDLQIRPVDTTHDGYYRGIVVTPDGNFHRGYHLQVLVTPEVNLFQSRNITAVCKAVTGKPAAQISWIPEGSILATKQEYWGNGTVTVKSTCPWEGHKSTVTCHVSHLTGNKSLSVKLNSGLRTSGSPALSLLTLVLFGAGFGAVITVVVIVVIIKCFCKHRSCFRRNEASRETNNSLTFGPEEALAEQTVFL
Protocol: as §1, §2, §3

[6] = molecular target: T2, monomeric soluble human CD200R …; experiment: SPR, captured antibody, soluble monomeric receptor injected, single cycle kinetics, 37 C
Protocol: (§4) The binding affinity and kinetics of the CD200R antibodies of the present disclosure to human or cynomolgus CD200R were determined by surface plasmon resonance (SPR) using the Biacore T200 (GE Healthcare). Mouse antibody capture kit (GE Healthcare) was used to coat a Series S CM5 Sensor Chip (GE Healthcare) with polyclonal anti-mouse IgG.
(§5) Anti-CD200R antibody was captured onto the biosensor surface and a negative control antibody (clone Mopc21; Biolegend) captured in the reference channel. Various concentrations of monomeric soluble human CD200R extracellular domain, soluble cynomolgus macaque CD200R1 extracellular domain or soluble cynomolgus macaque CD200RLa (a highly homologous activating receptor) were injected over the immobilized antibodies in the buffer 10 mM Hepes, 150 mM NaCl, 0.005% v/v Surfactant P20, pH 7.4 (HBS-P) at 37° C., in a single cycle kinetics analysis. Association and dissociation rates were fitted using BiaEvaluation Software (GE Healthcare) after reference and blank subtractions, and dissociation constants were calculated (Table 2).

[7] = molecular target: T6, soluble cynomolgus macaque CD200R1 extracellular domain (cynomolgus macaque, UniProt G7NZT0 29-266); experiment: as above
T6 construct: extracellular domain; also called Cynomolgus CD200R
T6 sequence: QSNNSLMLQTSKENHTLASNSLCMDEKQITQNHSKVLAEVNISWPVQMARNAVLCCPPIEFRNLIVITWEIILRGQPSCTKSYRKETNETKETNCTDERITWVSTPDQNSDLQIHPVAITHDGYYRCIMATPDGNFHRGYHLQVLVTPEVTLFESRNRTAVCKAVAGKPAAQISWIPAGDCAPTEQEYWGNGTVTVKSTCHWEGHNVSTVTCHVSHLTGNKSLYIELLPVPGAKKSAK
Protocol: as §4, §5

B1: hu2131_v20_D56S hIgG1k P238D (antibody)
heavy: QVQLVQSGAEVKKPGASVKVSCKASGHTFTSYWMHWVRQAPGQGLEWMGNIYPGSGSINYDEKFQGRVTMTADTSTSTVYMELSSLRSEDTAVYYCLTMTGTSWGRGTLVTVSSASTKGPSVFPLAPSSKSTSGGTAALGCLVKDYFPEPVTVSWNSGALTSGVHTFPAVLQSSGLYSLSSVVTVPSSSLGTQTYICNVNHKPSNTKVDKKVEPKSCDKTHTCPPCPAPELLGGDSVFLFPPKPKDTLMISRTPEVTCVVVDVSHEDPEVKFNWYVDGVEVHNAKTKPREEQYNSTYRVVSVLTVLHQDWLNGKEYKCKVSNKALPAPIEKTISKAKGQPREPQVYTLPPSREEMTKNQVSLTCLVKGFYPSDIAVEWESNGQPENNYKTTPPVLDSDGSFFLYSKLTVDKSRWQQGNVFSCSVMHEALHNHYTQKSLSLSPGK
light: DIQMTQSPSSLSVSVGDRVTITCQASQGTPINLHWFQQKPGKAPKLLISGASNLESGVPSRFSGSGSGTEFTFTISSLQPEDAATYYCLQFTYIPWTFGQGTKLEIKRTVAAPSVFIFPPSDEQLKSGTASVVCLLNNFYPREAKVQWKVDNALQSGNSQESVTEQDSKDSTYSLSSTLTLSKADYEKHKVYACEVTHQGLSSPVTKSFNRGEC
notes: also called VH4/VL5-D56S
- Kd [1]: 0.041 nM
- koff [1]: 1.06e-05 s⁻¹
- kon [1]: 258000 M⁻¹ s⁻¹
- Kd [2]: 0.00206 nM
- binding result [3]: no binding (tested: 10 ug/ml)
- binding result [4]: no binding (tested: 10 ug/ml)
- binding result [5]: no binding (tested: 10 ug/ml)

B3: 2131_chimera (antibody, V domains shown)
VH: QVQLQQPGSELVRPGASVKLSCKASGHTFTSYWMHWVKQRPGQGLEWIGNIYPGSGSINYDEKFKSKAKLTVDTSSRTAYMQLSSLTSEDSAVYYCLTMTGTSWGQGTLVTVSA
VL: DVQMIQSPSSLSASLGDIVTMTCQASQGTPINLHWFQQKPGKAPKLLISGASNLEDGVPSRFSGSRYGTAFTLTISSLEDEDMATYFCLQFTYIPWTFGGGTKLEIK
- Kd [2]: 0.00304 nM
- binding result [3]: no binding (tested: 10 ug/ml)
- binding result [4]: no binding (tested: 10 ug/ml)
- binding result [5]: no binding (tested: 10 ug/ml)

B5: anti-CD200R antibody clone 3.10.2 (mIgG1k isotype) (antibody, V domains shown)
VH: QVQLQQPGSELVRPGASVKLSCKASGYTFTSYWMHWVKQRPGQGLEWIGNIFPGSDTTNYDEKFKSKAIMTVDISSSTVYMHLSSLTSEDSAVYYCITYTGAYWGQGTLVTVSA
VL: DVQMIQSPSSLSASMGDIVTMTCQASQGTNINLHWFQQKPGKAPKLLISGGSNLEDGVPSRFSGSRYGTDFTLTISSLEDEDMATYFCLQFTYLPWTFGGGTKLDIKR
notes: Murine hybridoma antibody, IgG1 kappa
- Kd [6]: 0.4 nM
- Kd [7]: 0.0015 nM

Now from value to binder, other results behind:

- Kd [1]: 0.0917 nM
- koff [1]: 2.23e-05 s⁻¹
- kon [1]: 244000 M⁻¹ s⁻¹
- binding result [3]: no binding (tested: 10 ug/ml)
- binding result [4]: no binding (tested: 10 ug/ml)
- binding result [5]: no binding (tested: 10 ug/ml)
B2: hu2131_Q1E_M99G hIgG1k P238D (antibody, V domains shown)
VH: EVQLVQSGAEVKKPGASVKVSCKASGHTFTSYWMHWVRQAPGQGLEWMGNIYPGSGSINYDEKFQGRVTMTADTSTSTVYMELSSLRSEDTAVYYCLTGTGTSWGRGTLVTVSS
VL: DIQMTQSPSSLSVSVGDRVTITCQASQGTPINLHWFQQKPGKAPKLLISGASNLESGVPSRFSGSGSGTEFTFTISSLQPEDAATYYCLQFTYIPWTFGQGTKLEIKR

- Kd [7]: 0.708 nM
B4: anti-CD200R antibody clone 7.12.2 (mIgG1k isotype) (antibody, V domains shown)
VH: B3 VH with H27Y, S57T, I58T, K69T, R77S, L83I, L97T, M99G, G101S, S103Y
VL: B5 VL with M15L, N30S, H34N, S49Y, G51A, S52V, I75V, F91H, D105E
notes: as for B5
- Kd [6]: 2.9 nM

- binding result [3]: no binding (tested: 10 ug/ml)
- binding result [4]: no binding (tested: 10 ug/ml)
- binding result [5]: no binding (tested: 10 ug/ml)
B6: hu2131_v20 (antibody, human IgG1, V domains shown)
VH: B2 VH with E1Q, G99M
VL: DIQMTQSPSSLSVSVGDRVTITCQASQGTPINLHWFQQKPGKAPKLLISGASNLEDGVPSRFSGSGSGTEFTFTISSLQPEDAATYYCLQFTYIPWTFGQGTKLEIK
- Kd [2]: 0.00276 nM
